B1: TPR t1 (parent)
chain: GACCAAUCUGCCCUCAGAGCUCGAGAACAUCUUCGGAUGCAGAGGAGGCAGGCUUCGGUGGCGCGAUAGCGCCAACGUCCUCAACCUCCAAUGCAUCCCACCACAUGAUGAUGCCUGAAGAGCCUUGGUUUUUUG

Variants of: B1
Assay: polymerase ribozyme fitness, log enrichment relative to wild type (log ratio); higher = more active; in vitro selection for triplet polymerase activity
How it was run: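 Both subunits of a heterodimeric triplet polymerase ribozyme were given their own mutant library, built by PCR and transcribed. Each library was annealed with a biotinylated primer, the partner subunit and triplets, incubated frozen at −7 °C, and its extended constructs gel-excised, captured on streptavidin beads and amplified by RT-PCR, all in one round done in triplicate. Fitness is the logarithm of genotype enrichment relative to wild-type enrichment, with replicates averaged by inverse-variance weighting. That logarithm is base 2, and Illumina-sequenced genotypes needed ≥10 input reads and ≥1 read per output.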

Variant | polymerase ribozyme fitness (log ratio)
G10C G71A U81C A100U | -3.62
G10C G71U C114A A118C | -6.14
G10C G110C | -6.69
G10C U14A G48A G110A | -3.91
G10C U14C C15U C94U C97U U112A | -1.07
G10C U32C G52A G69C U112A G128A | -4.78
G10C U38A G63C U130G | -2.42
G10C U38G C53G G63C A111U C124U U133G | -5.15
G10C U38G G42C A121U | -1.8
G10C U78C U106A U109G | -4.27
G10C U92C G113U | -4.69
G10C U106C G107C | -5.64
G10C U112G | 0.149
G10U A18C | -2.58
G10U A18U A29U U54A A121C | -1.32
G10U A26G | -2.71
G10U A27G U59A C98U | -6.42
G10U A27G U106C C123A | 0.556
G10U A29G G52U C79G | -2.85
G10U A43U G45C U78A | -2.4
G10U A50C C73A U78G A90G | -0.824
G10U A91G C101U | -0.603
G10U A103G | -6.29
G10U C11G | 0.195

Variant | polymerase ribozyme fitness (log ratio)
G10U C12A G60A | -0.594
G10U C12U C22A C56U U112C | -1.17
G10U C13A A16U G110C U125A | -6.47
G10U C13A C72U U109A | -6.62
G10U C13G C80U G135U | -1.95
G10U C13G G45U C56A U87A C94U C124G | -0.526
G10U C13U C70A | -0.716
G10U C15G G19U G63A G113U C124A | -5.07
G10U C20A A50C C102A C114U | -6.03
G10U C20A C40U A46G C62U C82U C114A | -3.36
G10U C28G G60A C85A U131G | -4.5
G10U C31G G39C C64U G110A G113U | -6.42
G10U C34A G44A C72A | -5.99
G10U C49U | -0.491
G10U C53A C56A G61U A90C | -5.6
G10U C53G C70U C86U A119G | -0.267
G10U C62U C72A C88U C89G A121G U132C | -1.87
G10U C70A | -1.66
G10U C72A | -0.423
G10U C72U | -0.415
G10U C72U C80U | -0.683
G10U C73A U78G A111G | 0.173
G10U C73G U92A C101U C104U | -4.21
G10U C73U U92A C101U C104U | -3.23

Variant | polymerase ribozyme fitness (log ratio)
G10U C86A C102U | -2.34
G10U C89A C114A | -2.81
G10U C94U | -0.599
G10U C98A C123A | -4.36
G10U G19C A37U C72A C123G U130C | -1.39
G10U G35U A66U G69U G93A | -5.9
G10U G36C C86G G128C | -5.29
G10U G39C A46C U116G | -3.17
G10U G39U G63U G120A | -0.0221
G10U G42U G45A G61U C85U | -2.25
G10U G44C C88U A105G G120C | -3.52
G10U G47A | -0.776
G10U G47C G51A C53G C56U | -2.84
G10U G48A G93A C114G | -5.11
G10U G51A G61U A100C G113A G120A | -4.29
G10U G60C C79U G120C | 0.981
G10U G60C G69U A108G | -4.87
G10U G60C G122A | 0.255
G10U G61A C123A U126G | -1.39
G10U G61A C123G | 1.03
G10U G61U | 0.128
G10U G63U | -1.31
G10U G69U | 0.293
G10U G71C G135U | -3.12

Variant | polymerase ribozyme fitness (log ratio)
G10U G77A G93U U129C | -2.07
G10U G77A U106G | -2.38
G10U G77U U78G C114A | -2.65
G10U G110C | -4.86
G10U U14A U116C A121C | -4.9
G10U U21G C70A | -5.22
G10U U38G U78A G128A | -3.77
G10U U55A G71C | -1.11
G10U U59C A95U C102U | -3.58
G10U U59C U96G G117A | -4.44
G10U U109A | -4.67
G10U U112A C114U | -1.01
C11A | -1.27
C11A A18U A26G G39U G42A G45A G60A U133A | -6.17
C11A A18U A68G G120U | -4.2
C11A A26G G71C C101A C114U | -6.79
C11A A26U C72A | -5.37
C11A A27G | -6.66
C11A A27G A41U C49G G61U | -3.34
C11A A37C A50U | -2.75
C11A A37G G60U C101A U131G | -2.57
C11A A46C G63A U131G | -2.39
C11A A50G U126A | -3.95
C11A A74G | -1.56

Variant | polymerase ribozyme fitness (log ratio)
C11A A95G | -1.37
C11A A100C | -2.81
C11A A111U | -4.43
C11A A119C C124G | -4.46
C11A A121C | 1.02
C11A C12A A41G C89U | -2.15
C11A C12A C28U C31G G52A G63C G113C U116A | -5.83
C11A C12A U14G A18C G63C C85U A103G U106A G107A A108C C114U G117C | -6.98
C11A C12G C70A A111C | -3.93
C11A C12U U38A U78C U96A | -2.53
C11A C13A A74C | -2.72
C11A C13G C115A | -6.59
C11A C13G G36U C73A | -4.01
C11A C13U A41U | -2.84
C11A C15A G51U G71A C99A G113C | -8.01
C11A C15G U21G G63U A90U G93U C115U C124U G127U | -6.26
C11A C20U C73A A118U U133A | -2.94
C11A C20U G42C C53U | -4.13
C11A C28G G77U C98U G110U G135U | -3.7
C11A C40A C49G C94U | -3.79
C11A C40G U129A | -3.42
C11A C49A G69A G113A G128C | -6.11
C11A C49A U59A A91G | -2.95
C11A C49U C73A C86U A95G U106G C123U | -0.375

Variant | polymerase ribozyme fitness (log ratio)
C11A C56A G69A A84G A121C | -4.27
C11A C56U | -1.61
C11A C56U A105U | -3.49
C11A C64A A108U G110A | -6.85
C11A C64U U78C C80U A83G | -4.97
C11A C70A | -2.06
C11A C70A A90G | -3.13
C11A C70U G117A | -6.1
C11A C72A C101A U126C | -3.38
C11A C72G A111U | -6.18
C11A C72U | -1.58
C11A C73U C76A U78G U131A | -4.06
C11A C88A | -2.15
C11A C94A U116A G120C | -0.809
C11A C124U | 0.668
C11A G17A C124A G128A | -5.02
C11A G17U | -3.57
C11A G17U G61C A84G C124A | -4.74
C11A G36U G48C | -3.57
C11A G39A | -2.5
C11A G39A U54A C72A | -1.51
C11A G42C C72A | -1.79
C11A G42U U106A | -3.49
C11A G45U G71A A121C U132A | -0.447

Variant | polymerase ribozyme fitness (log ratio)
C11A G45U U125G G127A | -4
C11A G47C | -2.77
C11A G47C C72G | -3.64
C11A G47U G71A A83G G107C C124U | -7.17
C11A G48A C70U C114U | -6.22
C11A G48U G60U C123A | 0.672
C11A G52C C56A | -2.98
C11A G60A U112A A118U | 0.704
C11A G60C C86U | -1.76
C11A G60U | -0.589
C11A G60U A83U | -2.13
C11A G60U U112A A118U | 0.776
C11A G61A C104A G110A | -5.34
C11A G61A G93A C101G U112A U132A | -1.04
C11A G61C | -2.39
C11A G69C A121G | -0.0496
C11A G69U C97A C101A C104A | -3.94
C11A G69U G93A G128U | -3.27
C11A G71U C104A U129G G135U | -5.56
C11A G93C | -1.54
C11A G113A | -3.12
C11A U21C G52C A121C | 0.244
C11A U30C | -5.07
